Measured values reported in patent US20120294802A1 (published 2012).

T1: human Calcitonin Gene Related Peptide alpha (C-terminal amide (-NH2 printed after the last residue F; the filing words it as 'the N-terminal phenylalanine is amidated'); 125I radiolabeled in the receptor binding assay of Example 6)
T1 peptide: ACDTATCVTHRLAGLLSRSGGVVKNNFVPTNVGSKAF


Molecular target: T1, human Calcitonin Gene Related Peptide …
Test: ELISA

Binder | EC50 [nM]
Antibody Ab1 (antibody, V domains shown) VH: QSLEESGGRLVTPGTPLTLTCTVSGLDLSSYYMQWVRQAPGKGLEWIGVIGINDNTYYASWAKGRFTISRASSTTVDLKMTSLTTEDTATYFCARGDIWGPGTLVTVSS VL: QVLTQTASPVSAAVGSTVTINCQASQSVYDNNYLAWYQQKPGQPPKQLIYSTSTLASGVSSRFKGSGSGTQFTLTISDLECADAATYYCLGSYDCSSGDCFVFGGGTEVVVKR | 0.103
Antibody Ab2 (antibody) heavy: not shown light: QVLTQSPSSLSASVGDRVTINCQASQSVYDNNYLAWYQQKPGKVPKQLIYSTSTLASGVPSRFSGSGSGTDFTLTISSLQPEDVATYYCLGSYDCSSGDCFVFGGGTKVEIKRTVAAPSVFIFPPSDEQLKSGTASVVCLLNNFYPREAKVQWKVDNALQSGNSQESVTEQDSKDSTYSLSSTLTLSKADYEKHKVYACEVTHQGLSSPVTKSFNRGEC | 0.083

Other lines, results leading:

EC50 [nM] | Binder
0.088 | Antibody Ab4 (antibody, V domains shown) VH: QSLEESGGRLVTPGTPLTLTCSVSGIDLSGYYMNWVRQAPGKGLEWIGVIGINGATYYASWAKGRFTISKTSSTTVDLKMTSLTTEDTATYFCARGDIWGPGTLVTVSS VL: QVLTQTPSPVSAAVGSTVTINCQASQSVYHNTYLAWYQQKPGQPPKQLIYDASTLASGVPSRFSGSGSGTQFTLTISGVQCNDAAAYYCLGSYDCTNGDCFVFGGGTEVVVKR
0.154 | Antibody Ab3 (antibody) heavy: not shown light: QVLTQSPSSLSASVGDRVTINCQASQSVYDNNYLAWYQQKPGKVPKQLIYSTSTLASGVPSRFSGSGSGTDFTLTISSLQPEDVATYYCLGSYDCSSGDCFVFGGGTKVEIKRTVAAPSVFIFPPSDEQLKSGTASVVCLLNNFYPREAKVQWKVDNALQSGNSQESVTEQDSKDSTYSLSSTLTLSKADYEKHKVYACEVTHQGLSSPVTKSFNRGEC
